From PMC7195446, “The RhHB1/RhLOX4 module affects the dehydration tolerance of rose flowers (Rosa hybrida) by fine-tuning jasmonic acid levels” come the findings set out here.

The data set addresses GST-RhHB1 (Rosa hybrida, UniProt A0A096YDU1 1-243). The experiment in a line: EMSA; 25 pM probe (so in the source), 3 ug protein; signal weakened by 10x and 100x unlabeled probe; Pierce EMSA kit, per manufacturer's instructions; buffer, salt, pH and temperature not given. The following applies: protein: recombinant; tags: GST (N-terminal, pGEX-2T); chain copies: 2; label: biotin (5' of S3); blunt. (In general: Mobility shift assays separate free from complexed probe on a gel.)

Sequence of GST-RhHB1 (A0A096YDU1 entry or part of it): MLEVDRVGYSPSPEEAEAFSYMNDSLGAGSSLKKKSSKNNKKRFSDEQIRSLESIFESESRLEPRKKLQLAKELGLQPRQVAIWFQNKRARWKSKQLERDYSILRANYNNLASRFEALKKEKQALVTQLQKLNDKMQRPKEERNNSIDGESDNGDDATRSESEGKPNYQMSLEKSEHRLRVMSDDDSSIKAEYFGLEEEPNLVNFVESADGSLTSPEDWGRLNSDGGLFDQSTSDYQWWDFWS

B1: RhLOX4 promoter probe (-1270 to -1303) (dsDNA)
DNA 1: AAGAGAATATTTTGAAATAATATTAGGAGTCTCT
DNA 2: AGAGACTCCTAATATTATTTCAAAATATTCTCTT
With B1, the binding result is “binds”.
